Test results reported in patent publication US20210268070A1, “Use of Immunomodulators to Control Infection and Stimulate Healing in Normal and Diabetic Wounds” (priority 2018, published 2021).

How the values were obtained:
[1] = tested on: P. aeruginosa PA103; test: Implant model of infection with PA103; assay type: in vivo; settings: C57B mice, 10^6 PA103, topical at surgical site at time of surgery & infection, 10 ng or 100 ng, dose-dependent, 24 h following infection, FIG. 2A
Experimental: The implant model of infection in C57B mice was used for 10^6 PA103 (FIG. 2A) or 10^6 USA300 MRSA (FIG. 2C). The wound model of infection was used for 10^6 PA103 in C57BL mice (FIG. 2B) or diabetic db/db mice (FIG. 2D). Infection was carried out at the time of surgery by adding bacteria directly to the surgical sites. Immunomodulators, namely, LPS (10 ng or 100 ng), fMLP (10 ng or 100 ng), CCL3 (1 μg) were added topically at the surgical sites at the time of surgery & infection. GM-CSF (10 μg/kg), tobramycin (Tob at 3.5 mg/kg), and vancomycin (40 mg/kg) were added systemically by i.p. injection 1 h before surgical implantation and infection. Infection levels were determined 24 h following infection (N>4 animals/group; NS=not significant, * p<0.01, ** p<0.001, ***p<0.0001 One-way ANOVA).
We assessed these immunomodulators for their ability to control wound and/or implant SS's in normal (C57BL/6) or diabetic (db/db) mice. We acknowledge that diabetic individuals are not as immunocompromised as other immunocompromised patient groups. […] All immunomodulators were added locally at the surgical sites at the time of infection, except GM-CSF (10 μg/kg) which was administered systemically by i.p. injection 1 h prior to surgery per its FDA-approved route of delivery. […] CCL3 and GM-CSF are also tested using the implant model of infection. Here, we tested CCL3 and GM-CSF in the wound model of infection in C57B mice.
(§1) Implant surgery and wound surgery and surgical site infection are performed according to the following method. On the day of surgery, all mice are anesthetized by an intraperitoneal injection of a ketamine/xylazine mixture (90 mg/kg ketamine+5 mg/kg xylazine for mice). The back of the animals is shaved using an electric shave and scrubbed with alcohol swabs 3 times, a topical antiseptic solution (Hibiclens; chlorhexidine gluconate) is applied to the skin. The surgical procedures are performed with sterile instruments, sterile surgical gloves, and aseptic techniques as follows. […]

[2] = tested on: diabetic wounds; test: Collagen deposition and wound healing in infected diabetic wounds; assay type: in vivo, db/db mice; settings: P. aeruginosa PA103 10^3 infected, compared to PBS
Source text: FIGS. 11A-11C illustrate that CCL3 increases infection control (11A), collagen deposition (11B) and enhances wound healing (11C) in diabetic wounds. P. aeruginosa PA103 10^3N=4; Significance determined as compared to PBS *<0.05, **p<0.01, ***p<0.001.
(§2) As discussed above immunomodulatory therapies enhance infection control in both normal and diabetic models. FIGS. 11A-11C illustrate that CCL3 increases infection control (11A) increases collagen deposition (11B) and enhances wound healing (11C) in diabetic wounds. Immunomodulators may also be used to enhance wound healing in uninfected diabetic wounds.
as §1, with “follows. For wound surgical procedure, a sterile biopsy punch (5-7 mm diameter) is used to punch through the full thickness of the back skin below the shoulder blades. Four 5-7 mm skin wounds are made on the back of each mouse.” for “follows.”

[3] = tested on: diabetic uninfected wounds; test: Wound healing in diabetic uninfected wounds; assay type: in vivo, db/db mice; settings: FIG. 14
Source text: FIG. 14 illustrates CCL3 enhances wound healing in diabetic uninfected wounds.
as §2
as §1, with “follows. For wound surgical procedure, a sterile biopsy punch (5-7 mm diameter) is used to punch through the full thickness of the back skin below the shoulder blades. Four 5-7 mm skin wounds are made on the back of each mouse. Wounds placed in this area cannot be reached by the animals and therefore are protected from self-licking.” for “follows.”

Molecule: CSCC[C@H](NC=O)C(=O)N[C@@H](CC(C)C)C(=O)N[C@@H](Cc1ccccc1)C(=O)O [fMLP, N-Formylmethionyl-leucyl-phenylalanine]
- P. aeruginosa infection levels on both the implants and tissues surrounding implants [1]: significantly reduced

Molecule: lipopolysaccharide [LPS]
- P. aeruginosa infection levels on both the implants and tissues surrounding implants [1]: significantly reduced

B1: Chemokine (C-C motif) ligand 3 (protein, listed as Homo sapiens)
chain: MQVSTAALAVLLCTMALCNQFSASLAADTPTACCFSYTSRQIPQNFIADYFETSSQCSKPGVIFLTKRSRQVCADPSEEWVQKYVSDLELSA
notes: class 1 immunomodulator
- collagen deposition in diabetic wounds ([2]; FIG. 11B): increases
- wound healing in diabetic wounds ([2]; FIG. 11C): enhances
- wound healing in diabetic uninfected wounds [3]: enhances
